{"source": "patent US20220227815A1", "about": "“COMPOSITIONS AND METHODS USEFUL IN TREATING BRAIN DISEASES” (University of Kansas, priority 2019, published 2022)", "key": {"[1]": {"tested_on": "recombinant BDNF and pTrkB", "test": "Western blot detection of recombinant BDNF and pTrkB in brain", "format": "in vivo, SJL/elite mice", "conditions": "BDNF 5.71 nmol/kg i.v. with or without ADTC5 10 μmol/kg; 20 min; n=3", "procedure": "Female SJL/elite mice, 5 weeks of age (Charles River) were initially intravenously injected via lateral tail vein with 5.71 nmol/kg BDNF (Peprotech, Rocky Hill, N.J.) with (n=3) or without (n=3) 10 μmol/kg ADTC5. BDNF was allowed to circulate for 20-30 min prior to euthanasia via CO2. Immediately following euthanasia, mice were transcardially perfused with protease inhibitor infused TRIS buffer (pH 7.4). The brains of the mice were extracted and placed in the perfusate buffer on ice. For Western blotting, 100-150 mg of brain tissue was sectioned from the most ventral-posterior portion of the brain and placed in 200-250 μL of solution mixture containing 66% tissue protein extraction reagent (TPER; Thermo Fisher, Waltham, […].) and 33% […] neural protein extraction reagent (NPER; Thermo Fisher) with protease and phosphatase inhibitors (Thermo Fisher). […] These bands were not densiometrically analyzed due to high background signal; however, they are shown for qualitative analysis.\nTo improve the level of detection of BDNF and pTrkB bands via Western blot, the above process was repeated with an increase in dosages of BDNF. […] These images were not quantified due to the variation in dosing regiments; however, they are provided for qualitative analysis of BDNF brain depositions."}, "SJL/elite EAE mice": {"tested_on": "SJL/elite EAE mice", "test": "Suppression of EAE relapse, clinical scores", "format": "in vivo", "conditions": "BDNF 5.71 nmol/kg and/or ADTC5 10 μmol/kg i.v.", "procedure": "EAE Mouse Model: EAE disease in animals (5-8-week-old SJL/elite female mice, Charles River) was stimulated by injecting 200 μg of PLP139-151 peptide in a 0.2 mL emulsion containing equal volumes of PBS and complete Freund's adjuvant (CFA) with killed mycobacterium tuberculosis strain H37RA (Difco, Detroit, Mich.; final concentration 4 mg/mL) as described in Kobayashi, N.; Kiptoo, P.; Kobayashi, H.; Ridwan, R.; Brocke, S.; Siahaan, T. J. Prophylactic and therapeutic suppression of experimental autoimmune encephalomyelitis by a novel bifunctional peptide inhibitor. Clin Immunol 2008, 129, (1), 69-79 and Kobayashi, N.; Kobayashi, H.; Gu, L.; Malefyt, T.; Siahaan, T. J. Antigen-specific suppression of experimental autoimmune encephalomyelitis by a novel bifunctional peptide inhibitor. J Pharmacol Exp Ther 2007, 322, (2), 879-86. Briefly, […] of PLP/CFA emulsion was administered to four different regions above the shoulders and the flanks on Day 0 followed by intraperitoneal injection of 200 ng of pertussis toxin (List Biological Laboratories, Campbell, Calif.) on Days 0 and 2. Clinical scores that reflect the disease progression were determined using an 11-point scale with 0.5 increments ranging from 0 to 5; 0 being no apparent disease and 5 being moribund. On Day 21, mice were randomly separated into […]: (i) BDNF (5.7 nmol/kg)+ADTC5 (10 μmol/kg; n=7), (ii) BDNF alone (5.71 nmol/kg, n=6), (iii) ADTC5 alone (10 μmol/kg; n=5), and (iv) vehicle (n=5). All mice received 8 intravenous injections every 4 days beginning on Day 21. The mice were euthanized via CO2 inhalation on Day 55. Area under the curve (AUC) calculations were used to compare clinical scores across groups; AUC calculations were performed using the trapezoid rule from Days 21 to 55."}}, "data": [{"molecule": "BDNF: recombinant brain-derived neurotrophic factor (13 kDa monomer), Peprotech (protein, UniProt P23560 19-247, looked up) Neurotrophic factor BDNF …: APMKEANIRGQGGLAYPGVRTHGTLESVNGPKAGSRGLTSLADTFEHVIEELLDEDQKVRPNEENNKDADLYTSRVMLSSQVPLEPPLLFLLEEYKNYLDAANMSMRVRRHSDPARRGELSVCDSISEWVTAADKKTAVDMSGGTVTVLEKVPVSKGQLKQYFYETKCNPMGYTKEGCRGIDKRHWNSQCRTTQSYVRALTMDSKKRIGWRFIRIDTSCVCTLTIKRGR", "values": [{"measurement": "detection of BDNF bands in the brain", "setting": "[1]", "result": "undetected"}, {"measurement": "locomotion / paralysis observed", "setting": "SJL/elite EAE mice; 8 injections", "result": "partial or full hind leg paralysis and full tail paralysis"}, {"measurement": "EAE clinical body scores", "setting": "SJL/elite EAE mice; 8 injections every 4 days from day 21, compared with other groups/vehicle", "result": "no significant difference"}]}]}
